The record followed here is patent US20230151068A1.

First the molecules themselves.
B1: P01I variant of SEQ ID NO: 1 (designed binder)
chain: GSIDEYIERAKECCKKGDIQCCLRYFEESGDPNVMLICLFCP
B2: E06V variant of SEQ ID NO: 1 (designed binder)
chain: GSPDEYIVRAKECCKKGDIQCCLRYFEESGDPNVMLICLFCP
B3: R07F variant of SEQ ID NO: 1 (designed binder)
chain: GSPDEYIEFAKECCKKGDIQCCLRYFEESGDPNVMLICLFCP
B4: Y04I variant of SEQ ID NO: 1 (designed binder)
chain: GSPDEIIERAKECCKKGDIQCCLRYFEESGDPNVMLICLFCP
B5: E06F variant of SEQ ID NO: 1 (designed binder)
chain: GSPDEYIFRAKECCKKGDIQCCLRYFEESGDPNVMLICLFCP
B6: E06I variant of SEQ ID NO: 1 (designed binder)
chain: GSPDEYIIRAKECCKKGDIQCCLRYFEESGDPNVMLICLFCP
B7: E03L variant of SEQ ID NO: 1 (designed binder)
chain: GSPDLYIERAKECCKKGDIQCCLRYFEESGDPNVMLICLFCP
B8: D02W variant of SEQ ID NO: 1 (designed binder)
chain: GSPWEYIERAKECCKKGDIQCCLRYFEESGDPNVMLICLFCP
B9: D02V variant of SEQ ID NO: 1 (designed binder)
chain: GSPVEYIERAKECCKKGDIQCCLRYFEESGDPNVMLICLFCP
B10: I05V variant of SEQ ID NO: 1 (designed binder)
chain: GSPDEYVERAKECCKKGDIQCCLRYFEESGDPNVMLICLFCP
B11: R07I variant of SEQ ID NO: 1 (designed binder)
chain: GSPDEYIEIAKECCKKGDIQCCLRYFEESGDPNVMLICLFCP
B12: A08L variant of SEQ ID NO: 1 (designed binder)
chain: GSPDEYIERLKECCKKGDIQCCLRYFEESGDPNVMLICLFCP
B13: I05W variant of SEQ ID NO: 1 (designed binder)
chain: GSPDEYWERAKECCKKGDIQCCLRYFEESGDPNVMLICLFCP
B14: R07V variant of SEQ ID NO: 1 (designed binder)
chain: GSPDEYIEVAKECCKKGDIQCCLRYFEESGDPNVMLICLFCP
B15: Y04V variant of SEQ ID NO: 1 (designed binder)
chain: GSPDEVIERAKECCKKGDIQCCLRYFEESGDPNVMLICLFCP
B16: E03W variant of SEQ ID NO: 1 (designed binder)
chain: GSPDWYIERAKECCKKGDIQCCLRYFEESGDPNVMLICLFCP
B17: A08V variant of SEQ ID NO: 1 (designed binder)
chain: GSPDEYIERVKECCKKGDIQCCLRYFEESGDPNVMLICLFCP
B18: I05F variant of SEQ ID NO: 1 (designed binder)
chain: GSPDEYFERAKECCKKGDIQCCLRYFEESGDPNVMLICLFCP
B19: D02Y variant of SEQ ID NO: 1 (designed binder)
chain: GSPYEYIERAKECCKKGDIQCCLRYFEESGDPNVMLICLFCP
B20: K09W variant of SEQ ID NO: 1 (designed binder)
chain: GSPDEYIERAWECCKKGDIQCCLRYFEESGDPNVMLICLFCP
B21: E03F variant of SEQ ID NO: 1 (designed binder)
chain: GSPDFYIERAKECCKKGDIQCCLRYFEESGDPNVMLICLFCP
B22: R07W variant of SEQ ID NO: 1 (designed binder)
chain: GSPDEYIEWAKECCKKGDIQCCLRYFEESGDPNVMLICLFCP
B23: E10F variant of SEQ ID NO: 1 (designed binder)
chain: GSPDEYIERAKFCCKKGDIQCCLRYFEESGDPNVMLICLFCP
B24: D02L variant of SEQ ID NO: 1 (designed binder)
chain: GSPLEYIERAKECCKKGDIQCCLRYFEESGDPNVMLICLFCP
B25: E10L variant of SEQ ID NO: 1 (designed binder)
chain: GSPDEYIERAKLCCKKGDIQCCLRYFEESGDPNVMLICLFCP
B26: E03I variant of SEQ ID NO: 1 (designed binder)
chain: GSPDIYIERAKECCKKGDIQCCLRYFEESGDPNVMLICLFCP
B27: K09L variant of SEQ ID NO: 1 (designed binder)
chain: GSPDEYIERALECCKKGDIQCCLRYFEESGDPNVMLICLFCP
B28: P01F variant of SEQ ID NO: 1 (designed binder)
chain: GSFDEYIERAKECCKKGDIQCCLRYFEESGDPNVMLICLFCP
B29: E03Y variant of SEQ ID NO: 1 (designed binder)
chain: GSPDYYIERAKECCKKGDIQCCLRYFEESGDPNVMLICLFCP
B30: Y04W variant of SEQ ID NO: 1 (designed binder)
chain: GSPDEWIERAKECCKKGDIQCCLRYFEESGDPNVMLICLFCP
B31: D02I variant of SEQ ID NO: 1 (designed binder)
chain: GSPIEYIERAKECCKKGDIQCCLRYFEESGDPNVMLICLFCP
B32: R07L variant of SEQ ID NO: 1 (designed binder)
chain: GSPDEYIELAKECCKKGDIQCCLRYFEESGDPNVMLICLFCP
B33: K09I variant of SEQ ID NO: 1 (designed binder)
chain: GSPDEYIERAIECCKKGDIQCCLRYFEESGDPNVMLICLFCP
B34: Y04F variant of SEQ ID NO: 1 (designed binder)
chain: GSPDEFIERAKECCKKGDIQCCLRYFEESGDPNVMLICLFCP
B35: P01Y variant of SEQ ID NO: 1 (designed binder)
chain: GSYDEYIERAKECCKKGDIQCCLRYFEESGDPNVMLICLFCP
B36: E03V variant of SEQ ID NO: 1 (designed binder)
chain: GSPDVYIERAKECCKKGDIQCCLRYFEESGDPNVMLICLFCP
B37: P01W variant of SEQ ID NO: 1 (designed binder)
chain: GSWDEYIERAKECCKKGDIQCCLRYFEESGDPNVMLICLFCP
B38: I05L variant of SEQ ID NO: 1 (designed binder)
chain: GSPDEYLERAKECCKKGDIQCCLRYFEESGDPNVMLICLFCP
B39: K09F variant of SEQ ID NO: 1 (designed binder)
chain: GSPDEYIERAFECCKKGDIQCCLRYFEESGDPNVMLICLFCP
B40: A08W variant of SEQ ID NO: 1 (designed binder)
chain: GSPDEYIERWKECCKKGDIQCCLRYFEESGDPNVMLICLFCP
B41: A08I variant of SEQ ID NO: 1 (designed binder)
chain: GSPDEYIERIKECCKKGDIQCCLRYFEESGDPNVMLICLFCP
B42: P01L variant of SEQ ID NO: 1 (designed binder)
chain: GSLDEYIERAKECCKKGDIQCCLRYFEESGDPNVMLICLFCP
B43: E06L variant of SEQ ID NO: 1 (designed binder)
chain: GSPDEYILRAKECCKKGDIQCCLRYFEESGDPNVMLICLFCP
B44: P01V variant of SEQ ID NO: 1 (designed binder)
chain: GSVDEYIERAKECCKKGDIQCCLRYFEESGDPNVMLICLFCP
B45: E06W variant of SEQ ID NO: 1 (designed binder)
chain: GSPDEYIWRAKECCKKGDIQCCLRYFEESGDPNVMLICLFCP
B46: A08F variant of SEQ ID NO: 1 (designed binder)
chain: GSPDEYIERFKECCKKGDIQCCLRYFEESGDPNVMLICLFCP
B47: E10V variant of SEQ ID NO: 1 (designed binder)
chain: GSPDEYIERAKVCCKKGDIQCCLRYFEESGDPNVMLICLFCP
B48: D02F variant of SEQ ID NO: 1 (designed binder)
chain: GSPFEYIERAKECCKKGDIQCCLRYFEESGDPNVMLICLFCP
B49: E10W variant of SEQ ID NO: 1 (designed binder)
chain: GSPDEYIERAKWCCKKGDIQCCLRYFEESGDPNVMLICLFCP
B50: Y04L variant of SEQ ID NO: 1 (designed binder)
chain: GSPDELIERAKECCKKGDIQCCLRYFEESGDPNVMLICLFCP
B51: E10I variant of SEQ ID NO: 1 (designed binder)
chain: GSPDEYIERAKICCKKGDIQCCLRYFEESGDPNVMLICLFCP
B52: K09V variant of SEQ ID NO: 1 (designed binder)
chain: GSPDEYIERAVECCKKGDIQCCLRYFEESGDPNVMLICLFCP

For the assay, the target named is biotinylated His-Avi-TEAD (194-411) (UniProt P28347). The assay is described as follows: SSM screen, enrichment after two rounds of sorting.
With B1, the enrichment score is -2.27.

In the case of B2, the enrichment score is -1.55.

B3 came in with an enrichment score of -1.04.

B4: the enrichment score was -0.41.

The molecule B5 registered an enrichment score of -1.96.

Take B6: the enrichment score is -1.56.

B7: the enrichment score was 0.32.

Regarding B8, the enrichment score is -2.95.

Take B9: the enrichment score was -2.34.

B10 came in with an enrichment score of -0.27.

The molecule B11 yielded an enrichment score of -3.98.

Regarding B12, the enrichment score was -9.93.

The molecule B13 yielded an enrichment score of -7.46.

Take B14: the enrichment score was -2.31.

Consider B15, for which the enrichment score is -0.75.

Turning to B16, the enrichment score was -1.4.

B17: the enrichment score was -4.43.

On to B18, for which the enrichment score was -8.36.

B19 came in with an enrichment score of -1.63.

Consider B20, for which the enrichment score is -4.41.

B21 returned an enrichment score of 0.32.

The molecule B22 registered an enrichment score of -1.28.

For B23, the enrichment score is -1.6.

B24 yielded an enrichment score of -3.53.

In the case of B25, the enrichment score is -1.83.

The molecule B26 registered an enrichment score of -0.26.

On to B27, for which the enrichment score was -11.2.

The molecule B28 returned an enrichment score of -1.3.

B29 showed an enrichment score of -0.36.

As to B30, the enrichment score is -2.47.

Molecule B31 showed an enrichment score of -0.7.

For the molecule B32, the enrichment score was -0.39.

Consider B33, for which the enrichment score was -3.03.

Consider B34, for which the enrichment score came to 0.67.

B35 registered an enrichment score of -3.33.

In turn, B36 showed an enrichment score of -1.39.

B37: the enrichment score is -9.1.

B38: the enrichment score is -0.38.

For B39, the enrichment score was -3.52.

Consider B40, for which the enrichment score is -5.46.

For B41, the enrichment score is -8.31.

B42 registered an enrichment score of -2.9.

On to B43, for which the enrichment score was -0.4.

With B44, the enrichment score is -0.59.

B45 displayed an enrichment score of -1.53.

In turn, B46 yielded an enrichment score of -4.33.

Regarding B47, the enrichment score was -1.77.

Molecule B48 registered an enrichment score of -3.41.

The molecule B49 registered an enrichment score of -1.58.

B50: the enrichment score is -1.81.

B51 came in with an enrichment score of -0.65.

For the molecule B52, the enrichment score is -8.88.
